Measurements from PMC10197521 (bioRxiv, 2023).
Where a chain is given by its changes, count along the chain named.

Assays:
Test in all cases: co-IP
[1] = molecular target: T1, C-terminally truncated mouse CD4 T1 (mouse, UniProt P06332-1 27-422)
T1 sequence (looked up): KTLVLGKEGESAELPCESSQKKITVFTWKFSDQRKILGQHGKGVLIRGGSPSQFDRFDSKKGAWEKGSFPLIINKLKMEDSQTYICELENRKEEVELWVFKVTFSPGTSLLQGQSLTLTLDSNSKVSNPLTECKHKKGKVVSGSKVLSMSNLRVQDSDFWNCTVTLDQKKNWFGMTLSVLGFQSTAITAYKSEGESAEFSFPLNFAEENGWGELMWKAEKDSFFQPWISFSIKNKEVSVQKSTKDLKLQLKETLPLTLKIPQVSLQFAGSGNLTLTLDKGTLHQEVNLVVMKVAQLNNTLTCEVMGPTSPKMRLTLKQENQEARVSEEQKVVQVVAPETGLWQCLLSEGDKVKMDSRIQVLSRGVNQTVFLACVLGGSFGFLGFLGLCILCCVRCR

T1-Palm (2C) = molecular target: T2, T1-Palm (2C) (mouse, UniProt P06332-1 27-422, C418S | C421S)
T2 sequence (looked up): T1 sequence (looked up) with C392S, C395S

T1-TP (3C) = molecular target: T3, T1-TP (3C) (mouse, UniProt P06332-1 27-422, G403V | G406L | C417S | C418S | C421S)
T3 sequence (looked up): T1 sequence (looked up) with G377V, G380L, C391S, C392S, C395S

T1-TP (2C) = molecular target: T4, T1-TP (2C) (mouse, UniProt P06332-1 27-422, G403V | G406L | C418S | C421S)
T4 sequence (looked up): T1 sequence (looked up) with G377V, G380L, C392S, C395S

[2] = molecular target: T5, T1-TMD (CD4 T1 with GGXXG to GVXXL) (mouse, UniProt P06332-1 27-422, G403V | G406L)
T5 sequence (looked up): T1 sequence (looked up) with G377V, G380L

B1: Src kinase LCK (enzyme, UniProt P06240 1-509, looked up)
chain: MGCVCSSNPEDDWMENIDVCENCHYPIVPLDSKISLPIRNGSEVRDPLVTYEGSLPPASPLQDNLVIALHSYEPSHDGDLGFEKGEQLRILEQSGEWWKAQSLTTGQEGFIPFNFVAKANSLEPEPWFFKNLSRKDAERQLLAPGNTHGSFLIRESESTAGSFSLSVRDFDQNQGEVVKHYKIRNLDNGGFYISPRITFPGLHDLVRHYTNASDGLCTKLSRPCQTQKPQKPWWEDEWEVPRETLKLVERLGAGQFGEVWMGYYNGHTKVAVKSLKQGSMSPDAFLAEANLMKQLQHPRLVRLYAVVTQEPIYIITEYMENGSLVDFLKTPSGIKLNVNKLLDMAAQIAEGMAFIEEQNYIHRDLRAANILVSDTLSCKIADFGLARLIEDNEYTAREGAKFPIKWTAPEAINYGTFTIKSDVWSFGILLTEIVTHGRIPYPGMTNPEVIQNLERGYRMVRPDNCPEELYHLMMLCWKERPEDRPTFDYLRSVLDDFFTATEGQYQPQP
- Lck DRM AUC (LCK found with CD4, normalised to CD4), percent of WT [1]: 28.8 % of WT control
- Lck DSM AUC (LCK found with CD4, normalised to CD4), percent of WT [1]: 16.1 % of WT control
- Lck Total AUC (LCK found with CD4, normalised to CD4), percent of WT [1]: 19.2 % of WT control
- Lck DRM AUC (LCK found with CD4, normalised to CD4), percent of T1 (T1-Palm (2C)): 274 % of T1 control
- Lck DSM AUC (LCK found with CD4, normalised to CD4), percent of T1 (T1-Palm (2C)): 131 % of T1 control
- Lck Total AUC (LCK found with CD4, normalised to CD4), percent of T1 (T1-Palm (2C)): 139 % of T1 control
- Lck DRM AUC (LCK found with CD4, normalised to CD4), percent of T1 (T1-TP (3C)): 86.8 % of T1 control
- Lck DSM AUC (LCK found with CD4, normalised to CD4), percent of T1 (T1-TP (3C)): 103 % of T1 control
- Lck Total AUC (LCK found with CD4, normalised to CD4), percent of T1 (T1-TP (3C)): 101 % of T1 control
- Lck DRM AUC (LCK found with CD4, normalised to CD4), percent of T1 (T1-TP (2C)): 121 % of T1 control
- Lck DSM AUC (LCK found with CD4, normalised to CD4), percent of T1 (T1-TP (2C)): 115 % of T1 control
- Lck Total AUC (LCK found with CD4, normalised to CD4), percent of T1 (T1-TP (2C)): 113 % of T1 control
- Lck DRM AUC (LCK found with CD4, normalised to CD4), percent of T1 [2]: 62.4 % of T1 control
- Lck DSM AUC (LCK found with CD4, normalised to CD4), percent of T1 [2]: 111 % of T1 control
- Lck Total AUC (LCK found with CD4, normalised to CD4), percent of T1 [2]: 93 % of T1 control
